Reference: PMC4749977, “Alp7/TACC-Alp14/TOG generates long-lived, fast-growing MTs by an unconventional mechanism” (Scientific Reports, 2016)

B1: S. pombe single isoform (α1β) tubulin (complex)
chain 1: MREVISVHVGQAGVQIGNACWELYCLEHGIGPDGFPTENSEVHKNNSYLNDGFGTFFSETGQGKFVPRSIYVDLEPNVIDQVRTGPYKDLFHPEQMVTGKEDASNNYARGHYTVGKEMIDSVLERIRRMADNCSGLQGFLVFHSFGGGTGSGLGALLLERLNMEYGKKSNLQFSVYPAPQVSTSVVEPYNSVLTTHATLDNSDCTFMVDNEACYDICRRNLDIERPTYENLNRLIAQVVSSITASLRFAGSLNVDLNEFQTNLVPYPRIHFPLVTYSPIVSAAKAFHESNSVQEITNQCFEPYNQMVKCDPRTGRYMATCLLYRGDVIPRDVQAAVTSIKSRRTIQFVDWCPTGFKIGICYEPPQHVPGSGIAKVNRAVCMLSNTTSIAEAWSRLDHKFDLMYSKRAFVHWYVGEGMEEGEFSEAREDLAALERDYEEVGQDSMDNEMYEADEEY
chain 2: MREIVHIQAGQCGNQVGAAFWSTIADEHGLDSAGIYHGTSEAQHERLNVYFNEAAGGKYVPRAVLVDLEPGTMDAVKSGKFGNLFRPDNIIYGQSGAGNIWAKGHYTEGAELADAVLDVVRREAEACDALQGFQLTHSLGGGTGSGMGTLLLSKIREEYPDRMMATFSVAPAPKSSDTVVEPYNATLSMHQLVENSDETFCIDNEALSSIFANTLKIKSPSYDDLNHLVSAVMAGVTTSFRFPGELNSDLRKLAVNMVPFPRLHFFMVGFAPLAAIGSSSFQAVSVPELTQQMFDANNMMVAADPRHGRYLTVAALFRGKVSMKEVDEQIRSVQTKNSAYFVEWIPDNVLKAVCSVPPKDLKMSATFIGNSTSIQEIFRRLGDQFSAMFRRKAFLHWYTGEGMDEMEFTEAESNMNDLVSEYQQYQEAGIDEGDEDYEIEEEKEPLEY
notes: alpha-1 tubulin (α1) of S. pombe, from strain mmsp174 (atb2 replaced by nda2+); beta tubulin (β) of S. pombe, from strain mmsp174; Stands both as the free GTP-tubulin heterodimer and as the growing plus end of the microtubule polymerised from it; which of the two is meant is told in the assay's format and the quantity; also called GTP-tubulin; T (tubulin dimer); source: purified from S. pombe …

How the values were obtained:
[1] = biological target: S. pombe dual-isoform (α1β + α2β) tubulin (S. pombe) (UniProt P04688); experiment: DIC video microscopy of microtubule growth; addition of GTP-tubulin to plus and minus ends of MTs nucleated by axoneme fragments; growth rate against tubulin concentration, linear regression, apparent rate constants; 100 mM K-PIPES, 1 mM MgSO4, 2 mM EGTA, 1 mM DTT pH 6.9, 1 mM GTP, no glycerol, 25 °C
[2] = biological target: the molecule itself; experiment: microtubule growth rates (VE-DIC video microscopy) against tubulin concentration, fit of a bimolecular reaction; GTP-tubulin dimer adding to and leaving the microtubule plus end; single isoform S. pombe tubulin in PEM at 25 °C, without Alp14; apparent rate constants per microtubule end in dimers
[3] = biological target: the molecule itself; experiment: glycerol gradient centrifugation; 5-40% glycerol gradient of purified Alp14, Alp7 and tubulin, alone or mixed; tubulin as GTP-tubulin where stated; fractions on SDS-PAGE with Coomassie staining
[4] = biological target: B1; experiment: microtubule growth rates (dark-field microscopy) with Alp14, fit of a kinetic model; Alp14-facilitated pathway T + M + E = TE + M = E + (M+1); Alp14 resident at the plus end of S. pombe α1β microtubules grown from GMPCPP seeds; 6 µM or 0.5 µM tubulin, nanomolar Alp14, PEM100, 25 °C; constants are parameters fitted to or constrained by the growth data, steady state assumed; conditions: both partners purified
[5] = biological target: B1; experiment: as above; conditions: both partners purified; remark: listed apart in the source

S. pombe dual-isoform (α1β + α2β) tubulin (from UniProt P04688 1-455; P04689 1-449; P05219 1-448) (complex)
Kd = koff/kon (critical concentration), minus end [1]: 1900 nM
Kd = koff/kon (critical concentration), plus end [1]: 2000 nM
koff, minus end [1]: 3.1 nm/s
koff, plus end [1]: 9.3 nm/s
kon, minus end (nm s^−1 μM^−1) [1]: 1.6
kon, plus end (nm s^−1 μM^−1) [1]: 4.7

B1
koff [2]: 6.6 s⁻¹
kon [2]: 5.5e+06 M⁻¹ s⁻¹

B2: Alp7, full length, with an N-terminal avi-tag (natural protein, S. pombe, UniProt Q9URY2 1-474, looked up)
chain: MSDIVSSSTDYSRRSPSSSSIGTNETDHTGFHEKRQGASSESLIPPAQRSSEESMPAPKLFPKLTSKPNPQLNLKDTLNKRVSDRLQALELNKSFDFSGTPRPMHPISHPLSQHKTPEFKHRKRNVESILTPKNPSLFSSSNAASQRGSLNTAPSNFAYSHSSSLQTSASSRPPVLSNGSFPRQTNTAPLNPPVHLKDNIRNSATPSTSQADIPTQYPINSTQKQQAKYEAEIEGYKAKLAGTYHEISVLQNTIVNVSGQLIAVNDQLQQLRSGKASTSPSTKDTNMRLVEGHNEETLALQRGKYTQEEVDKLIQERMEKVAEDLHAQYSAKHTQKINAFKANYARKYEATIQELQNQIGTAPNAPKISNSNWEEERRALKADNQTLQKQLEKAIQERQDMSDFLNNFKADMAKSDKLLMQQQSQQTGDLETLRLQLQALQEELRVEREERQQLIQMSEDLVIAMDQLNLEQKS
modifications: biotin on the AviTag (BirA ligase co-expressed to ensure biotinylation)
notes: Alp7 (Mia1p), TACC-family protein of S. pombe, full length; gene PCR-amplified from wild-type genomic S. pombe DNA; also called Alp7/TACC; Mia1p; source: Sf9 insect cells (baculovirus, BirA ligase co-expressed), purified on monomeric avidin agarose
binding result [3]: binds

B3: Alp14 (full length, S. pombe TOG-family microtubule polymerase) (enzyme, UniProt O94534 1-809, looked up)
chain: MSQDQEEDYSKLPLESRIVHKVWKVRLSAYEECSKSFSLSADGSDNCFELWNNQSELWKSVLTDSNVAAQEAGTAAFVAYCRFSDPSHLLKAREISVLSISEKCLTSPRAGTRENALEALMLLVEADSAAPVIESIIPSLSARSPKVIASNVAAIASLVEQFGAKVIPSKMIIPHISNLFGHADKNVRKEASRLTVNIYRWTGDPLKDLLFKDLRPVQTKELESLFAELPTEPPKQTRFLKSQQPTSEPNVETQVEEQPALENEESEPEPSDDQFDLVEEVDVLPNVDPNLETLMASSKWKDRKEALDKLLPVLSQPKIKDNDFFNLVAILTKSVSKDANIMVVINAAHCIQAMAKGLRSNFSKYASTSINALLERSKEKKANVIESLSSAMDAVLATSSLDDLAELIASFAGNKNPQIKSSCFSLFSRSFSNMTSLPSKFTVDTCAKACVPGVSDTFEPVRSAAAEALGVLMKLVGERAINQYLSPLDDIRKSKIRSFYETATVKAKAPTKKSKVKPSKQEESKVVVPSNAKAVKKSVVPSSPVVPSPRKATNKSLSMDVSKGNAFENGPLLPRPTTRPVSRGLSRGTSSSLQQKVKASTPLNSGALNETVQNLKNMELDDPAPQPAKHSRVDRYEHPKVLEDNDSTISSLESLKRENEELREQLKVEHEENISMQKQLSELKGELNTLRSARKASPIGDRKPAFMRRANTDFLELSTSPSFQRSVREFEPTRPKLYSSIDVNQRSPLASAKTNGNFTFHAELPRSPFSSRANNINPDWTKAIDLAAKLKQKITEMKQTDQRHQGLIH
notes: Alp14, S. pombe, full length; gene PCR-amplified from wild type genomic S. pombe DNA; also called Alp14/TOG
Kd [4]: 6 nM
koff [4]: 1 to 15 s⁻¹
kon [4]: > 4e+07 M⁻¹ s⁻¹
Kd [5]: > 5 nM

B4: Alp14, full length, with a C-terminal his or Avi tag (natural protein, S. pombe, UniProt O94534 1-809, looked up)
chain: MSQDQEEDYSKLPLESRIVHKVWKVRLSAYEECSKSFSLSADGSDNCFELWNNQSELWKSVLTDSNVAAQEAGTAAFVAYCRFSDPSHLLKAREISVLSISEKCLTSPRAGTRENALEALMLLVEADSAAPVIESIIPSLSARSPKVIASNVAAIASLVEQFGAKVIPSKMIIPHISNLFGHADKNVRKEASRLTVNIYRWTGDPLKDLLFKDLRPVQTKELESLFAELPTEPPKQTRFLKSQQPTSEPNVETQVEEQPALENEESEPEPSDDQFDLVEEVDVLPNVDPNLETLMASSKWKDRKEALDKLLPVLSQPKIKDNDFFNLVAILTKSVSKDANIMVVINAAHCIQAMAKGLRSNFSKYASTSINALLERSKEKKANVIESLSSAMDAVLATSSLDDLAELIASFAGNKNPQIKSSCFSLFSRSFSNMTSLPSKFTVDTCAKACVPGVSDTFEPVRSAAAEALGVLMKLVGERAINQYLSPLDDIRKSKIRSFYETATVKAKAPTKKSKVKPSKQEESKVVVPSNAKAVKKSVVPSSPVVPSPRKATNKSLSMDVSKGNAFENGPLLPRPTTRPVSRGLSRGTSSSLQQKVKASTPLNSGALNETVQNLKNMELDDPAPQPAKHSRVDRYEHPKVLEDNDSTISSLESLKRENEELREQLKVEHEENISMQKQLSELKGELNTLRSARKASPIGDRKPAFMRRANTDFLELSTSPSFQRSVREFEPTRPKLYSSIDVNQRSPLASAKTNGNFTFHAELPRSPFSSRANNINPDWTKAIDLAAKLKQKITEMKQTDQRHQGLIH
notes: Alp14, TOG-family microtubule polymerase of S. pombe, full length; gene PCR-amplified from wild-type genomic S. pombe DNA; also called Alp14/TOG; full length Alp14
binding result [3]: binds
